The source of these data is the supplement of paper PMC9170038.

Data set [1] has as its system K4 kissing-loop RNA reporter. Description: apparent KD of K4 kissing-loop reporter; higher = weaker reporter binding. The conditions noted are these: Eterna round: R107. The method, then:
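RNA-MaP round R107: designed RNA switches with theophylline, tryptophan, arginine or FMN aptamers are transcribed on-chip within common flanks. They are titrated with a labelled K4 kissing-loop RNA reporter in RNA-MaP buffer (100 mM Tris pH 7.5, 80 mM KCl, 4 mM MgCl2), without ligand or with the indicated ligand. Median apparent KD per design.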

A further data set relates to MS2 coat protein. The data set can be described thus: apparent KD of MS2 coat protein; designed switch direction (-1 OFF switch, 1 ON switch): -1; higher = weaker reporter binding. A digest of the protocol:
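Designed RNA switches with common flanks were transcribed on Illumina chips by stalled E. coli RNA polymerase and titrated with SNAP-549-labelled MS2 coat protein, from 0.7 or 1.5 nM doubling to 3 µM, in Tris-HCl pH 7.5 buffer with KCl, MgCl2, BSA, DTT, tRNA and Tween-20. Steps lasted 0.8–1.5 h (lowest) to 10–20 min (highest). Titrations ran without input, with 200 uM small-molecule ligand, or with an oligonucleotide input. Normalised cluster fluorescence was curve-fitted, and apparent KD is the per-design median over clusters.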

Setting [2] is: Eterna round: R95, input ligand: microRNA oligo, concentration not stated.
Where [3] appears, read: Eterna round: R95, input ligand: FMN 200 uM.
Where [4] appears, read: Eterna round: R95, input ligand: none.
[5] abbreviates: input ligand: microRNA oligo, concentration not stated.
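For apparent KD of K4 kissing-loop reporter in this document: bound reporter read as fluorescence of individual clusters on recovered sequencing chips by microscopy, with normalized cluster intensities fitted with a binding model.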

“AAAGUUGCAAGUGAUACCAGACGAGUGAAGGGAAGUAAUUAAUUAGGAGUGAUGUUCCGCGUCCCUUGGCAGCACUUUGUAAUUU [Exclusion Theophylline B GF 25]”: the “apparent KD of K4 kissing-loop reporter” value worked out at 155 nM in data set [1] (input ligand: FMN 200 uM); 165 nM in data set [1] (input ligand: arginine 13.2 mM); 152 nM in data set [1] (input ligand: none); 184 nM in data set [1] (input ligand: theophylline 20 uM); 115 nM in data set [1] (input ligand: tryptophan 2.4 mM).
Take “UUUUAACAUGAGGAUCACCCAUGUGAGGAUAUCGAAAUUUAUAUUAAUAUUUAUUUUACGAGAAGGCACAUUUU [JMF 66] (puzzle: Exclusion 1)”: the “apparent KD of MS2 coat protein” value in the data set with MS2 coat protein (setting [2]) worked out at 104 nM.
As for “UUUUAACAUGAGGAUCACCCAUGUGAGGAUAUCGAAAUUUAUAUUAAUAUUUUUAAAACGAGAAGGCACAUUUU [JMF 67] (puzzle: Exclusion 1)”, in the data set with MS2 coat protein (setting [2]), the “apparent KD of MS2 coat protein” value turned out to be 53.5 nM.
In the case of “UUUUAACAUGAGGAUCACCCAUGUGAGGAUAUCGAAAUUUAUAUUAAUAUUUUUAUAUCGAGAAGGCACAUUUU [JMF 72] (puzzle: Exclusion 1)”, in the data set with MS2 coat protein (setting [2]), the “apparent KD of MS2 coat protein” value came to 84.7 nM.
As for “UUUUAACAUGAGGAUCACCCAUGUGAGGAUAUCGAAAUUUAUAUUUAUAUUAAUAAUUCGAGAAGGCACAUUUU [JMF 77] (puzzle: Exclusion 1)”, the “apparent KD of MS2 coat protein” value in the data set on MS2 coat protein (setting [2]) was found to be 155 nM.
With “UUUUAACAUGAGGAUCACCCAUGUGAGGAUAUCGAAUUUUAUAUUAAUAUUAAUAAAACGAGAAGGCACAUUUU [JMF 8] (puzzle: Exclusion 1)”, the results for the “apparent KD of MS2 coat protein” value in the data set with MS2 coat protein (setting [3]), in the data set with MS2 coat protein (setting [2]) and with MS2 coat protein (setting [4]) were 60.8 nM, 49.6 nM and 49.6 nM, respectively.
Consider “UUUUAACAUGAGGAUCACCCAUGUGAGGAUAUCGAUAUUUAUAUUAAUAUUAAUAAAACGAGAAGGCACAUUUU [JMF 7] (puzzle: Exclusion 1)”, for which, in the data set on MS2 coat protein (setting [2]), the “apparent KD of MS2 coat protein” value came to 65.2 nM.
With “UUUUAACAUGAGGAUCACCCAUGUGAGGAUAUCGAUUUUUAUAUUAAUAUUAAUAAAACGAGAAGGCACAUUUU [JMF 11] (puzzle: Exclusion 1)”, the “apparent KD of MS2 coat protein” value in the data set with MS2 coat protein (setting [2]) was determined as 123 nM.
For “UUUUAACAUGAGGAUCACCCAUGUGAGGAUAUCGUUUUUUAUAUUAAUAUUAAUAAAACGAGAAGGCACAUUUU [JMF 10] (puzzle: Exclusion 1)”, the “apparent KD of MS2 coat protein” value with MS2 coat protein (setting [2]) stood at 121 nM.
For “UUUUACAAGCCAGAUCCUCACAUGAGGAUCACCCAUGUGCUCGUCUGUUUUUGUACUAUCACGUUUGUGAUAGUGUU [Level Boss var2-09] (puzzle: Sensor v3, turn-off variant 1)”, the entries for the “apparent KD of MS2 coat protein” value in the data set with MS2 coat protein (setting [3]), in the data set with MS2 coat protein (setting [2]) and in the data set with MS2 coat protein (setting [4]) were 189 nM, 14.6 nM and 189 nM, respectively.
As for “UUUUACAGAGGAUAUGCGAAUAAAUAAAACUUUUUUUUUUAACAUGAGGAUCACCCAUGUAGAAGGCUGAUUUU [Ex2 #25] (Eterna round: R97, puzzle: Exclusion 2)”, the “apparent KD of MS2 coat protein” value is 40 nM in the data set with MS2 coat protein (input ligand: FMN 200 uM) and 48.4 nM with MS2 coat protein (input ligand: none).
For “UUUUAGUAAGGAUAUGGUUAGAUCUACUUCGGUAGAUCUAACCAGAAGGUACAUGAGGAUCACCCAUGUAGAUA [Mod of Brourd 19 - Jieux - Exclusion 4] (Eterna round: R97, puzzle: Exclusion 4)”, the “apparent KD of MS2 coat protein” value in the data set with MS2 coat protein (input ligand: FMN 200 uM) was 25.2 nM; in the data set with MS2 coat protein (input ligand: none), 25.3 nM.
As to “UUUUGGCAAGCGAGAUCCCACAUGAGGAUCACCCAUGUUGACCAUGGUUUCCAUGGUCAUUUUGCUCGUCUUGUGUG [jl TITIN mod 1] (Eterna round: R97, puzzle: Sensor, turn-off variant 1)”, the “apparent KD of MS2 coat protein” value in the data set on MS2 coat protein (input ligand: FMN 200 uM) turned out to be 31.3 nM; in the data set on MS2 coat protein (input ligand: none), 31.8 nM.
With “UUUUGUUUUUUAUUUUUUAACAUGAGGAUCACCCAUGUAACGAGCAGAUCUUCAUGCAAGCUUUUUGCUCGUCUUAU [Sensor v3 - Turn-off variant 1 - 42] (puzzle: Sensor v3, turn-off variant 1)”, the “apparent KD of MS2 coat protein” value in the data set on MS2 coat protein (setting [3]) was 42.2 nM; with MS2 coat protein (setting [2]), 16.1 nM; in the data set with MS2 coat protein (setting [4]) it was 60.6 nM.
As for “UUUUUACAUGAGGAUCACCCAUGUCAGGAUAUCAUUAUAUUUUAUUAUUUUAUUUAUAUGAGAAGGGACUAUUA [My solution] (Eterna round: R96, puzzle: Exclusion 1)”, the “apparent KD of MS2 coat protein” value in the data set on MS2 coat protein (input ligand: FMN 200 uM) was found to be 127 nM; in the data set with MS2 coat protein (setting [5]), 79.2 nM; in the data set on MS2 coat protein (input ligand: none), 105 nM.
As for “UUUUUACAUGAGGAUCACCCAUGUCAGGAUAUCAUUAUAUUUUAUUAUUUUAUUUAUAUGAGAAGGGACUAUUA [My solution] (puzzle: Exclusion 1)”, the “apparent KD of MS2 coat protein” value with MS2 coat protein (setting [2]) was determined as 93.8 nM.
As for “UUUUUACAUGAGGAUCACCCAUGUGAGGAUAUGAGGGUUAGCUUAAAUGGGCUGACUUUCAGAAGGCACAUGAA [JR_Ex1_Sub059] (Eterna round: R97, puzzle: Exclusion 1)”, the “apparent KD of MS2 coat protein” value with MS2 coat protein (input ligand: FMN 200 uM) turned out to be 280 nM; with MS2 coat protein (input ligand: none), 128 nM.
As for “UUUUUAUAUGAAGGAUAUACUUAACAUGAGGAUCACCCAUGUGGUGUUGUGAGUGAGUGAGUUUAGUAGAAGGUCAAGUAUUUC [JMF's solution 43] (Eterna round: R96, puzzle: Exclusion NG 2)”, the figures for the “apparent KD of MS2 coat protein” value in the data set on MS2 coat protein (input ligand: FMN 200 uM), in the data set on MS2 coat protein (setting [5]) and in the data set on MS2 coat protein (input ligand: none) were 752 nM, 329 nM and 731 nM, respectively.
“UUUUUAUAUGAAGGAUAUACUUAACAUGAGGAUCACCCAUGUGGUGUUGUGAGUGAGUGAGUUUAGUAGAAGGUCAUUUCUUUU [JMF's solution 78] (Eterna round: R96, puzzle: Exclusion NG 2)”: the “apparent KD of MS2 coat protein” value with MS2 coat protein (input ligand: FMN 200 uM) turned out to be 440 nM; in the data set on MS2 coat protein (setting [5]) it was 411 nM; in the data set on MS2 coat protein (input ligand: none), 462 nM.
With “UUUUUCAGGCCAGAUCCUCACAUGAGGAUCACCCAUGUGCUCGUCUGUUUUCGCUCUUUCUUUUUUUUGGUUGUGCU [Level Boss var2-18] (puzzle: Sensor v3, turn-off variant 1)”, the “apparent KD of MS2 coat protein” value was found to be 174 nM in the data set on MS2 coat protein (setting [3]), 31.2 nM in the data set on MS2 coat protein (setting [2]) and 259 nM with MS2 coat protein (setting [4]).
Take “UUUUUCUGGCAAGGAUAUCCUGUGCGGUUCCGGCUCGUGUCUGUUACAUGAGGAUCACCCAUGUGGGAGAAGGUGCCUGUGGUU [Design 88] (Eterna round: R96, puzzle: Exclusion NG 2)”: the “apparent KD of MS2 coat protein” value was 94.2 nM in the data set with MS2 coat protein (input ligand: FMN 200 uM), 26.9 nM with MS2 coat protein (setting [5]) and 35.3 nM in the data set with MS2 coat protein (input ligand: none).
As to “UUUUUGUAUGAAGGAUAUACUUAACAUGAGGAUCACCCAUGUGGUGUUGUGAGUGAGUGAGUUUAGUAGAAGGUCAAUUAUUUU [JMF's solution 24] (Eterna round: R96, puzzle: Exclusion NG 2)”, the “apparent KD of MS2 coat protein” value in the data set on MS2 coat protein (input ligand: FMN 200 uM) was determined as 843 nM; in the data set on MS2 coat protein (setting [5]), 346 nM; in the data set with MS2 coat protein (input ligand: none), 361 nM.
As to “UUUUUUUUGUUUUUUGUUUACAUGAGGAUCACCCAUGUGACGAGUUUAUGGGUGAACAAGCUUUUUGCUCGUCUUAU [Sensor v3 - Turn-off variant 1 - 5] (puzzle: Sensor v3, turn-off variant 1)”, the “apparent KD of MS2 coat protein” value with MS2 coat protein (setting [3]) is 52.4 nM; in the data set with MS2 coat protein (setting [2]), 17.8 nM; with MS2 coat protein (setting [4]), 140 nM.
On to “UUUUUUUUUGUGAGGAUAUACUUUUUUUUUUUUUUGUAGAAGGCACAUGAGGAUCACCCAUGUUUUUUUUUCUC [JR_BME4_Sub029] (puzzle: Brourd's mod of Exclusion 4)”, for which the “apparent KD of MS2 coat protein” value with MS2 coat protein (setting [2]) turned out to be 13.2 nM.
